Data as given in patent US12144864B2, “Tubulysins and protein-tubulysin conjugates” (Regeneron Pharmaceuticals, Inc., priority 2018, dated 2024).

B1: anti-STEAP2-LP5 (antibody, V domains shown)
VH: QVQLVESGGGVVQPGRSLRLSCVASGFTISSYGMNWVRQAPGKGLEWVAVISYDGGNKYSVDSVKGRFTISRDNSKNTLYLQMNSLRAEDSAVYYCARGRYFDLWGRGTLVTVSS
VL: DIQMTQSPSTLSASVGDRVTITCRASQSISSWLAWYQQKPGRAPNLLISKASSLKSGVPSRFSGSGSGTEFTLTVSSLQPDDFATYYCQQYYSYSYTFGQGTKLEIK
modifications: linker-payload LP5 (DIBAC-suc-PEG4-VA, payload IVd) conjugated; site and DAR of this conjugate not printed (the site-specific procedure uses N297Q, EU numbering, with azido-PEG3-amine on glutamines)
B2: Anti-PRLR-LP3 (conjugate)
VH: QVQLVESGGGVVQPGRSLRLSCGASGFTFRNYGMQWVRQGPGKGLEWVTLISFDGNDKYYADSVKGRFTISRDNSKNTLFLQMNSLRTEDTAVYYCARGGDFDYWGQGTLVTVSS
VL: DIQMTQSPSSLSASVGDRVTITCRASQDIRKDLGWYQQKPGKAPKRLIYAASSLHSGVPSRFSGSGSGTEFTLTISSLQPEDFATYYCLQHNSYPMYTFGQGTKLEIK
modifications: non-natural residues
B3: Anti-PRLR-LP4 (conjugate)
VH: B2 VH
VL: B2 VL
modifications: non-natural residues

How the values were obtained:
C4-2 cells = test: Cytotoxicity of anti-STEAP2 ADCs, payloads and reference compounds in C4-2 cells; format: cell-based, human; settings: at maximum concentration tested
Method: (§1) To test the ability of the disclosed tubulysin payloads to kill human cell lines, an in vitro cytotoxicity assay was performed. In vitro cytotoxicity of the disclosed payloads, as well as reference compounds, were evaluated using the CellTiter-Glo Assay Kit (Promega, Cat #G7573), in which the quantity of ATP present is used to determine the number of viable cells in culture. For the assay, C4-2, HEK293, or T47D cells were seeded at 4000 cells/well on Nunclon white 96-well plates in complete growth medium (DME high glucose:Ham's F12 at 4:1, 10% FBS, 100 units/ml Penicillin, 100 ug/ml streptomycin, 53 ug/ml glutatmine, 10 ug/ml insulin, 220 ng/ml biotin, 12.5 pg/ml T3, 12.5 ug/ml Adenine, 4 ug/ml transferrin for C42 cells; DME high glucose, 10% FBS, 100 units/ml Penicillin, 100 ug/ml streptomycin, 53 ug/ml glutatmine for HEK293; RPMI, 10% FBS, 100 units/ml Penicillin, 100 ug/ml streptomycin, 53 ug/ml glutatmine, 10 ug/ml insulin, 10 mM HEPEs, 200 nM Sodium Pyruvate for T47D cells) and grown overnight at 37° C. in 5% CO2. For cell viability curves, 1:3 serially diluted payloads were added to the cells at final concentrations ranging from 100 nM to […], including a no treatment control group, and were then incubated for 5 days. After the 5-day incubation, cells were incubated at room temperature with 100 μL of CellTiter-Glo reagents for 10 minutes. Relative luminescence units (RLU) were determined on a Victor plate reader (PerkinElmer). The IC50 values were determined from a four-parameter logistic equation over a 10-point response curve (GraphPad Prism). All IC50 values are expressed in molar (M) concentration. The percent cell killing (% kill) at the maximum concentration tested was estimated from the following formula (100−% viable cells). Averages±standard deviation (SD) are included where replicate experiments were performed.
To further test the ability of the disclosed tubulysin payloads, reference compounds, and antibody drug conjugates using these payloads, a cytotoxicity assay was performed using C4-2 cells as described in this example (see above). For these studies, anti-STEAP2 antibodies were conjugated to select tubulysins payloads, and the compounds were tested at concentrations starting at 100 nM with 3-fold serial dilution. All IC50 values are expressed in nM concentration and the percent cell killing at the maximum concentration tested was estimated from the following formula (100−% viable cells).

[1] = biological target: T1, STEAP2 endogenously expressed on C4-2 prostate cancer cells (human, UniProt Q8NFT2 1-490); test: cell-based or functional assay
T1 sequence (looked up): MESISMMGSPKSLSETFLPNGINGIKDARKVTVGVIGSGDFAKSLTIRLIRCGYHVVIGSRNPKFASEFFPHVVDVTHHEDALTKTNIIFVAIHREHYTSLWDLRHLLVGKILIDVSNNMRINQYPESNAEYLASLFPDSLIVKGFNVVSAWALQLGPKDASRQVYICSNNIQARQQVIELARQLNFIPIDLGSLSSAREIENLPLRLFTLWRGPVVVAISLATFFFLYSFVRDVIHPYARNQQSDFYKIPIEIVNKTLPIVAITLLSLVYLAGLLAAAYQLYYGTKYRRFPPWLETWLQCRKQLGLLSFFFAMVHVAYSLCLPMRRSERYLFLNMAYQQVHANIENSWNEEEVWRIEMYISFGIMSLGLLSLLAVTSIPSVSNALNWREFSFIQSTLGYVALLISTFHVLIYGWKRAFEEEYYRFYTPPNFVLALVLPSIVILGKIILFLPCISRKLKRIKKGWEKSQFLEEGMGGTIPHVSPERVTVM

[2] = In vitro plasma stability of ADCs (DAR by LC-MS), cynomolgus monkey plasma; format: in vitro ADME; settings: 37° C., 50 μg/mL, DAR at 0 hr 3.8 (LP3 ADC), 4.0 (LP4 ADC), acetyl-hydrolyzed species counted as loss of drug
Method: (§2) To determine the plasma stability of representative ADCs containing the tubulysin payloads, ADCs were incubated in vitro with plasma from different species, and the DAR was evaluated after incubation at physiological temperature (37° C.) for 3 days.
(§3) For the assay, each ADC sample (anti-PRLR antibody-LP3 or anti-PRLR antibody-LP4) in PBS buffer was added to fresh pooled male mouse, cynomologus monkey, rat, or human plasma, separately, at a final concentration of 50 μg/mL in a 96-well plate, and subsequently incubated at 37° C. for 72 hours. After incubation, each sample (100 μL final volume) was individually frozen at −80° C. until analysis.
(§4) Affinity capture of the ADCs from the plasma samples was carried out on a KingFisher 96 magnetic particle processor (Thermo Electron). First, biotinylated extracellular domain of human PRLR expressed with a myc-myc hexahistidine tag (hPRLR ecto-MMH; SEQ ID NO: 17;100 μg/mL) was immobilized on streptavidin paramagnetic beads (In vitrogen, Cat #60210). Each plasma sample containing tubulysin ADCs (100 μL) was mixed at 600 rpm with 100 μL of the beads (the commercial beads come in volume) at room temperature for 2 hours in a 96-well plate. The beads were then washed three times with 600 μL of HBS-EP (GE healthcare, Cat #BR100188), once with 600 μL of H2O, and then once with 600 μL of 10% acetonitrile in water. […]

[3] = In vitro plasma stability of ADCs (DAR by LC-MS), mouse plasma; format: in vitro ADME; settings: 37° C., 50 μg/mL, DAR at 0 hr 3.8 (LP3 ADC), 4.0 (LP4 ADC), acetyl-hydrolyzed species counted as loss of drug
Method: as §2, §3, §4

[4] = In vitro plasma stability of ADCs (DAR by LC-MS), rat plasma; format: in vitro ADME; settings: 37° C., 50 μg/mL, DAR at 0 hr 3.8 (LP3 ADC), 4.0 (LP4 ADC), acetyl-hydrolyzed species counted as loss of drug
Method: as §2, §3, §4

[5] = In vitro plasma stability of ADCs (DAR by LC-MS), human plasma; format: in vitro ADME; settings: 37° C., 50 μg/mL, DAR at 0 hr 3.8 (LP3 ADC), 4.0 (LP4 ADC), acetyl-hydrolyzed species counted as loss of drug
Method: as §2, §3, §4

HCT15/PRLR cells = test: Cytotoxicity of anti-PRLR tubulysin ADCs and payloads in HCT15/PRLR cells with or without Verapamil; format: cell-based, human; settings: at maximum concentration tested; for % kill on HCT15/PRLR w/ Verapamil: with Verapamil; for % kill on HCT15/PRLR w/o Verapamil: without Verapamil
Method: as §1
Bioassays were developed to assess the efficacy of an anti-PRLR antibody conjugated with the disclosed tubulysin payloads and reference payloads. It was developed to assess the activity of tubulysin payloads after internalization of an anti-PRLR-tubulysin ADC into cells, release of the payload, and subsequent cytotoxicity. For this assay, a HCT15 line was engineered to express human full length PRLR (accession #NP_000940.1). The resulting stable cell line is referred to herein as HCT15/PRLR. In vitro cytotoxicity of the disclosed payloads, reference compounds, and tested ADCs were evaluated similarly as described in this example using HCT15/PRLR cells with or without […] of Verapamil diluted in normal culture medium. The compounds were tested at concentrations starting at 100 nM with 3-fold serial dilution. All IC50 values are expressed in nM concentration and the percent cell killing (% kill) at the maximum concentration tested was estimated from the following formula (100−% viable cells).

| Molecule | % kill (C4-2 cells) [%] | IC50, cytotoxicity in the C4-2 cell based assay (CellTiter-Glo) [1] [pM] | DAR after 72 hours of incubation [2] | DAR after 72 hours of incubation [3] | DAR after 72 hours of incubation [4] | DAR after 72 hours of incubation [5] | % kill on HCT15/PRLR w/ Verapamil (HCT15/PRLR cells) [%] | % kill on HCT15/PRLR w/o Verapamil (HCT15/PRLR cells) [%] |
| --- | --- | --- | --- | --- | --- | --- | --- | --- |
| B1 | 96 | 280 |  |  |  |  |  |  |
| B2 |  |  | 2.7 | 2.7 | 2.7 | 3.0 | 91 | 90 |
| B3 |  |  | 2.7 | 2.7 | 2.6 | 3.0 | 91 | 65 |
